In the Immune Epitope Database (IEDB):

Columns and labels:
Assay in all cases: IEDB peptide-MHC binding, purified MHC/competitive/radioactivity; filed as Kd, often an IC50 or EC50 that approximates it; ≥ and ≤ were set here for values at or beyond the usual limits of such assays
HLA-A*03:01 = target: HLA-A*03:01
HLA-A*11:01 = target: HLA-A*11:01
HLA-A*31:01 = target: HLA-A*31:01
HLA-A*33:01 = target: HLA-A*33:01
HLA-A*68:01 = target: HLA-A*68:01
[1] = source organism: Mammarenavirus machupoense
[2] = source organism: Dengue virus 1 Singapore/S275/1990
[3] = source organism: SARS coronavirus Tor2
[4] = source organism: Dengue virus 2 Jamaica/1409/1983
[5] = source organism: Dengue virus 4 Philippines/H241/1956
[6] = source organism: Vaccinia virus WR
[7] = source organism: Lymphocytic choriomeningitis virus (strain Armstrong)
[8] = source organism: Lymphocytic choriomeningitis virus (strain Traub)
[9] = source organism: Dengue virus 3 Martinique/1243/1999
[10] = source organism: Mammarenavirus brazilense
[11] = source organism: Mammarenavirus whitewaterense
[12] = source organism: Dengue virus 1 Brazil/97-11/1997

Sequence	Kd (HLA-A*03:01; [6])	Kd (HLA-A*11:01; [6])	Kd (HLA-A*31:01; [6])	Kd (HLA-A*33:01; [6])	Kd (HLA-A*68:01; [6])	further results
SNIQFNISK						Kd (HLA-A*03:01; [1]): 4910 nM; Kd (HLA-A*11:01; [1]): 12.2 nM; Kd (HLA-A*31:01; [1]): 1740 nM; Kd (HLA-A*33:01; [1]): 10900 nM; Kd (HLA-A*68:01; [1]): 15 nM
RIMQRGLLGR						Kd (HLA-A*03:01; [2]): 5.56 nM; Kd (HLA-A*31:01; [2]): 1.16 nM
YSYATHHDK						Kd (HLA-A*03:01; [3]): 16.4 nM; Kd (HLA-A*11:01; [3]): 30.5 nM; Kd (HLA-A*31:01; [3]): 3470 nM; Kd (HLA-A*33:01; [3]): ≥ 26200 nM; Kd (HLA-A*68:01; [3]): 16.3 nM
AMAFHLTTR						Kd (HLA-A*03:01; [4]): 56.3 nM; Kd (HLA-A*31:01; [4]): 1.57 nM
ISNITTATR						Kd (HLA-A*31:01; [5]): 72.7 nM
MVDVSMMSMY	2330 nM	2040 nM	≥ 23900 nM	≥ 30600 nM	148 nM	
RSIAMLKSK	216 nM	3.11 nM	1500 nM	≥ 77700 nM	637 nM	
ILSDENYLLK	57.5 nM	29 nM	17000 nM	14400 nM	2530 nM	
SSKIRWIVER						Kd (HLA-A*31:01; [5]): 17.1 nM; Kd (HLA-A*33:01; [5]): 389 nM
IAQYKCVTIK	29.1 nM	773 nM	5880 nM	≥ 24100 nM	5860 nM	
STLLTWHMH						Kd (HLA-A*03:01; [7]): ≥ 38200 nM; Kd (HLA-A*11:01; [7]): 258 nM; Kd (HLA-A*31:01; [7]): 4490 nM; Kd (HLA-A*33:01; [7]): ≥ 77700 nM; Kd (HLA-A*68:01; [7]): 2720 nM
GLTSRATWAK						Kd (HLA-A*03:01; [4]): 52.3 nM
AIFTYTGGY	287 nM	282 nM	7160 nM	≥ 77700 nM	8380 nM	
MLDTSEKYSK	17300 nM	107 nM	≥ 22300 nM	≥ 70000 nM	4320 nM	
IVSSVNMISR						Kd (HLA-A*33:01; [4]): 88.5 nM; Kd (HLA-A*68:01; [4]): 16.2 nM
MSTYGWNLVR						Kd (HLA-A*68:01; [4]): 24.9 nM
KSTELIRRVR	≥ 70100 nM	≥ 20200 nM	15 nM	1930 nM	901 nM	
GTDDEVIER	≥ 63500 nM	369 nM	2230 nM	1170 nM	634 nM	
YLALYNKYK						Kd (HLA-A*03:01; [3]): 201 nM; Kd (HLA-A*11:01; [3]): 1320 nM; Kd (HLA-A*31:01; [3]): 941 nM; Kd (HLA-A*33:01; [3]): 7980 nM; Kd (HLA-A*68:01; [3]): 913 nM
KCHDHYLCRH						Kd (HLA-A*03:01; [8]): ≥ 24800 nM; Kd (HLA-A*11:01; [8]): ≥ 69700 nM; Kd (HLA-A*31:01; [8]): 9650 nM; Kd (HLA-A*33:01; [8]): ≥ 70000 nM; Kd (HLA-A*68:01; [8]): ≥ 70100 nM
KSLVSAGSGK						Kd (HLA-A*03:01; [9]): 3.41 nM
QTMLFTMLR						Kd (HLA-A*03:01; [3]): 43.5 nM; Kd (HLA-A*11:01; [3]): 1.81 nM; Kd (HLA-A*31:01; [3]): 0.162 nM; Kd (HLA-A*33:01; [3]): 1.24 nM; Kd (HLA-A*68:01; [3]): 2.61 nM
LMHPDFCKNR	13600 nM	≥ 24500 nM	16.9 nM	254 nM	8450 nM	
TSLAIKNYYR	118 nM	0.933 nM	460 nM	258 nM	5.8 nM	

Sequence	Kd (HLA-A*03:01; [6])	Kd (HLA-A*11:01; [6])	Kd (HLA-A*31:01; [6])	Kd (HLA-A*33:01; [6])	Kd (HLA-A*68:01; [6])	further results
QFNQMMNPSH						Kd (HLA-A*03:01; [10]): ≥ 70000 nM; Kd (HLA-A*11:01; [10]): ≥ 69700 nM; Kd (HLA-A*31:01; [10]): ≥ 20200 nM; Kd (HLA-A*33:01; [10]): ≥ 70000 nM; Kd (HLA-A*68:01; [10]): ≥ 70100 nM
TLNEYKQLY	56.7 nM	124 nM	1350 nM	7000 nM	1360 nM	
FTLNHVLALK	10.6 nM	7.96 nM	135 nM	1710 nM	4.61 nM	
TAMAFHLTTR						Kd (HLA-A*31:01; [4]): 9.04 nM; Kd (HLA-A*33:01; [4]): 18.4 nM; Kd (HLA-A*68:01; [4]): 8.55 nM
SYTQVCDHR						Kd (HLA-A*33:01; source organism: Dengue virus 1 Nauru/West Pac/1974): 43.2 nM
VTSLAIKNY	≥ 25100 nM	322 nM	≥ 34800 nM	≥ 77700 nM	12500 nM	
NVKHTSVSAK	519 nM	3350 nM	10300 nM	8280 nM	502 nM	
QMRTPLHKY	141 nM	1760 nM	7830 nM	≥ 77700 nM	≥ 77700 nM	
SRLFEDLVWK						Kd (HLA-A*03:01; [11]): 661 nM; Kd (HLA-A*11:01; [11]): 1270 nM; Kd (HLA-A*31:01; [11]): 8590 nM; Kd (HLA-A*33:01; [11]): ≥ 70000 nM; Kd (HLA-A*68:01; [11]): 605 nM
DLLNSMMNR	2210 nM	14800 nM	42.3 nM	4.04 nM	35.9 nM	
GLSLQDYCY	3100 nM	361 nM	≥ 37800 nM	8680 nM	≥ 29500 nM	
TAVAPSMTMR						Kd (HLA-A*68:01; [4]): 18.8 nM
YIIRRSGCR	10500 nM	566 nM	29.3 nM	192 nM	64.1 nM	
LTLFVEECLR						Kd (HLA-A*33:01; [5]): 60.7 nM; Kd (HLA-A*68:01; [5]): 56.2 nM
EGVYRIMQR						Kd (HLA-A*68:01; [5]): 215 nM
NMLNIMNRR						Kd (HLA-A*31:01; [2]): 5350 nM; Kd (HLA-A*33:01; [2]): 13.3 nM
GTLGLECSPR						Kd (HLA-A*33:01; [9]): 23.6 nM; Kd (HLA-A*68:01; [9]): 106 nM
TSADLTVEK						Kd (HLA-A*11:01; [9]): 185 nM; Kd (HLA-A*68:01; [9]): 15.5 nM
KIIHEWCCR						Kd (HLA-A*31:01; [12]): ≥ 59300 nM
SSMLNIMNR						Kd (HLA-A*11:01; [12]): 10.4 nM; Kd (HLA-A*31:01; [12]): 11800 nM; Kd (HLA-A*68:01; [12]): 7.35 nM
RNKKPRICTR						Kd (HLA-A*31:01; [12]): ≥ 70000 nM
VSIMIEEVMR						Kd (HLA-A*68:01; [12]): 202 nM
MKNKAWMVHR						Kd (HLA-A*31:01; [9]): 140 nM
